This series is described as follows: yeast display, Sf9 membrane polyspecificity reagent, FACS + sequencing; frameworks hold sequencing errors. In outline:
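Nanobodies from a synthetic yeast display library (Saccharomyces cerevisiae BJ5465), induced 36–48 hours with galactose, were stained 1 hour at 4 °C with 10% biotinylated, detergent-solubilized Sf9 membrane reagent, enriched on streptavidin microbeads, then FACS-sorted. Anti-HA (expression) and streptavidin (reagent binding) fluorescence set low and high (top ~1%) gates. Polyreactivity labels come from the gate of origin. Genes were colony-PCR amplified, MiSeq 2 × 250 sequenced and filtered by CDR length.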
Turning to “QVQLVESGGGIVQAGGSLRLSCAASGSTLYLYVMGWYRQAPGKERELVAVISSSSGRTYYADSVKGRFTISRDNAKNTVYLQMNSLKPEDTAVYYCAADNYVGYHWYNYWGQGTQVTVSS”, the “polyreactivity (PSR sort gate)” value is “high polyreactivity”.

Take “QVQLVESGGGIVQAGGSLRLSCAASGSTYYGYTMGWYRQAPGKERELVAVITSGGSTYYADSVKGRFTISRDNAKNTVYLQMNILKPEDRAVYYCAKRYGYPAYGRPWRIGRTYDYWGQGTQVTVSS”: the “polyreactivity (PSR sort gate)” value is “low polyreactivity”.

As for “QVQLVESGGGIVQAGGSLRLSCAASGYTFPRYAMGWYRQAPGKERELVAAITSRGGSTYYADSVKGRFTISRDNAKNTVYLQMNSLKPEDTAVYYCAVLGFGALDFDSWGQGTQVTVSS”, the “polyreactivity (PSR sort gate)” value was “high polyreactivity”. Regarding “QVQLVESGGGIVQAGGSLRLSCAASGYTYPRYTMGWYRQAPGKERELVAVIRRSGGTHYADSVKGRFTISRDNAKNTVYLHMNRLKPEETAVYYCAVVSFLPNIPYGYWGQGTQVTVSS”, the “polyreactivity (PSR sort gate)” value was “high polyreactivity”. As for “QVQLVESGGGIVQAGGSLRLSCADSGFTFAFYAMGRYRQAPRKERELVAAISSGGGNTYYADSVKGRFTISRDNAKNTVYLQMNSLNPEDTAVYYCATRYISQGGYWGQGTQVTVSS”, the “polyreactivity (PSR sort gate)” value is “high polyreactivity”. Next, “QVQLVESGGGIVQAGGSLRLSCAGSGGILGDNTMGWYGHAPGKERELGASITRGGTTNYADSLTGRFTISREHAKNTVYFQKISLKPVDTAVYYCNAAVERFGDSPDYDYWGQGTQVTVSS”: “low polyreactivity”; “QVQLVESGGGIVQAGGSLRLSCASSGFTLGLYAMGWYRQAPGKERELVAVISGRGSRTYYADSVKGRFTISRDNAKNTVYLQMNSLKPEDTAVYYCAASYRTYYRTGYDYWGQGTQVTVSS”: “high polyreactivity”.

For the sequence “QVQLVESGGGIVQAGGSLRLSCPASGLTFIYYAMGWYRQAPGKERELVAAITRGTSTYYADSVKGRFTISRDNAKNTVYLQMNSLKPEDTAVYDCAAKSRRVRTYNYWGQGTQVTVSS”, the “polyreactivity (PSR sort gate)” value is given as “high polyreactivity”.

As to “QVQLVESGGGIVQAGGSLRLSRAASGFTFPFYAMRWYRQAHGKERELVAAISQSGVRTYYADSVKGRFTISRDNAKNSVYLLMNSLKPEDTAVYYCAATSLNTRTGYWGQGTQVTVSS”, the “polyreactivity (PSR sort gate)” value was “high polyreactivity”. Next, “QVQLVESGGGIVQAGGSLRLSSAATGRIYAKNAMGWYRQAPGKERELVAAINHSVGSTYYADSVKARFTISRDNANNTVYLQMISLIQEDTAVYYCATLQGDSSSQYDYWGQGTQVTVSS”: “high polyreactivity”; “QVQLVESGGGIVQAGGSLRLTCAASGRIFIYYYMGWYRQAPGKERELVADITLSGGSTYYADSVKGRFTISRDNAKNNVYLQMTSLKPEDTAVYYCAATRRYWKIFFGDGDYWGQATQVTVSS”: “high polyreactivity”; “QVQLVESGGGIVQAGGSLRVSCAASGRTFWGYAMGWYRQAPGKERELVAALNKSGGSTYYADSVKGRFTISRDNAKNTVYLQKNSLNPEDTAVYYCIAVYYWYKGDYWGQGTQVTVSS”: “high polyreactivity”.

Consider “QVQLVESGGGIVQAGRSLRVSCADSGSAFPRYDMGWYRPAPGKERELVAAISRGGSTNYADSVKGRFTLSRDNATNSVSLQMFCLIPVDPAVYYCAAQIFESAYGIVYWGQRTQVTVSS”, for which the “polyreactivity (PSR sort gate)” value is reported as “low polyreactivity”. Next, “QVQLVESGGGIVQAGVSLRLSCAASGITFIRYAMGWYRQAPGKERELVAAISSSGGSTYYADSVKGRFTISRDNAKNTVYLQMISLKPEDTAVYYCAARIPDRQDGYGYWGQGTQVTVSS”: “high polyreactivity”; “QVQLVESGGGKVQAGGSLRLSCAASGLTFWSYAMGWYRQAPGKERELVAAISGTGGRTYYADSVKGRFTITRDNAKNTVYLQMTSLKPEDTAVYYCTARTWRWYFTFDYWGQGTQVNVSS”: “high polyreactivity”. The same measure for “QVQLVESGGGKVQAGGSLRLSCPPSGRTFYYYAMGWYRQAPGKVRELVAVIRSSGDSTYYADSVKGRFTISRDNEKNTVYLQMKSLKPDDTAVDYCAADAPSRSYSWHPRYYYWGQGSQVTVSS”: “low polyreactivity”; for “QVQLVESGGGLAQAGGSLRLTCAASGNTFPLYPMGWYRQAPGKERELFAAISQRGGSTYYSDSVKGRFTISRDYAKNTVYLQMNSLKPEDTAFYYCAATWADEYQYRRYYYWGQGTQVTVSS”: “high polyreactivity”; for “QVQLVESGGGLDQAGGSLPLSCASSGSIFRSNAMGWSRQPPAKAREMVAAITESGDTTNYADSVKGRFTISRDNAKNTVYLQMNSLKPEDTAVYYCNAGWTMSYVYSQMDYWGQGTQVTVSS”: “low polyreactivity”. Next, “QVQLVESGGGLDQAGGSLRLICAASGSTFGGYVMGWYRQAPGKERELVAAISRSGASTYYADSVKGRFTISRDNAKNTVYLQMNSLKPEDTAVYYCAAYQARGMDYWGQGTQVTVSS”: “high polyreactivity”. As to “QVQLVESGGGLDQAGGSLRLICASSGRTFYPNAMGWYRQAPGKEREFVAAITWSGGGTFYADSVKGRFTISRDHAKNTVYLQMLSLNPEDTAVYYCAARLDTYQTQSVITPAALYYWGQGTQETVSS”, the “polyreactivity (PSR sort gate)” value was “low polyreactivity”.

On to “QVQLVESGGGLDQAGGSLRLSCAAAGFIFHLNAMGWYRQAPGKERELLASIRSSGDSTHYADSEKGRFTISRDNAKITVYLQMNSLKPEDTAVFYCNADFYPAGTLTYDYWGQGTQVTVSS”, for which the “polyreactivity (PSR sort gate)” value is “low polyreactivity”.

For the sequence “QVQLVESGGGLDQAGGSLRLSCAASARTFTYYAMGWYRQAPGKERELVAAIRWTGDSTYYADSVKGRFTISRDYAKNTVYLQMNSLKPEDTAVYYCAKQARWQYDGGIRWYYYWGQGTQVTVSS”, the “polyreactivity (PSR sort gate)” value is “high polyreactivity”. Next, “QVQLVESGGGLDQAGGSLRLSCAASGFAFSYYAMGWYRQAPGKEREFVASIDWSGGSTYYADSVKGRFTISRDNAKNTVYLQMNSLKPEDTAVYYCAAELDYFPGYDYWGQGTQVTVSS”: “low polyreactivity”; “QVQLVESGGGLDQAGGSLRLSCAASGFIFFINDMGWYRQAPGKERELVAAISWSGGSTYYADSVKGRFTISRDNAKNTVYLQMNSLKPEDTAVYYCNTDVPTAQYDYWGQGTQVTVSS”: “low polyreactivity”; “QVQLVESGGGLDQAGGSLRLSCAASGFIFFRYAMGWYRQAPGKERELVAGNNGSDGSTYYADSVKGRFTISRDNAKNTVYLQMNSLKPEDTAVYYCAAEGGFSPQPYNLYYATPREDYWGQGTQVTVSS”: “low polyreactivity”.

As for “QVQLVESGGGLDQAGGSLRLSCAASGFIFPIYAMGWNRQAPGKERELVAAISWSGGSTYYADSVKGRFTISRDNAKNTVYLQMNSLKPEDTAVYYCAKRYPYYPYDYWGQGTQVTVSS”, the “polyreactivity (PSR sort gate)” value was “high polyreactivity”. Next, “QVQLVESGGGLDQAGGSLRLSCAASGFIFPVYAMGWSRPAPGKERELVAAIRRGGSTNYADSVKGRFTISRDNAKNTVYVQMNSLKPEDTAVYYCAKTIGLKHEDEYWGQGTQVTVSS”: “low polyreactivity”; “QVQLVESGGGLDQAGGSLRLSCAASGFIFYSNAMGWYRQAPGKERELVAAISRGGGSTYYADSVKGRFTISRDNAKNTVYLQLNSLKPEDTAVYYCAKRRLSPQDDYWGQGTQVTLSS”: “high polyreactivity”; “QVQLVESGGGLDQAGGSLRLSCAASGFIINRNAMGWYRQAPGKERELVADITGGSTYYADSVKGRFTISRDNAKNTVYLQMNSLKPEDNAVYYCAADVLRITTLLFRGTGFDSWGHGTQVTVSS”: “low polyreactivity”. In the case of “QVQLVESGGGLDQAGGSLRLSCAASGFIYSYAMGWYRQAPGKERELVAAIRRGGPTNYADSVKGRFSISRDNAKTTVYLPMNSRKPEDTAVYYCAADSWFRRNEYDDWGQGTQVTVAS”, the “polyreactivity (PSR sort gate)” value is reported as “high polyreactivity”. As to “QVQLVESGGGLDQAGGSLRLSCAASGFTLDYYTMGRYRQAPGKERELVAAISWIGTSTYYADSVKGRFTISRDNAKNTVYLQMNSLKPEDTAVYYCAAVGASVDDYYWGQGTQVTVSS”, the “polyreactivity (PSR sort gate)” value is listed as “high polyreactivity”. The same measure for “QVQLVESGGGLDQAGGSLRLSCAASGIIFARNAMGWYRQAPGKERELVAAISGSGGRTYYADSVKGRFTISRDNAKNTVYLQMNSLKPEDTAVYYCAAEYTYRAVALDYWGQGTQVTVSS”: “high polyreactivity”.

“QVQLVESGGGLDQAGGSLRLSCAASGIIFLSYAMGRYRQAPGKERELVAAIRSRGDSTYYADSVKGRFTNSRDNAKNTVYLQMNSLKPEDTAVYYCNARQRRYPYGYWGQGTQVTVSS”: the “polyreactivity (PSR sort gate)” value is given as “high polyreactivity”. As to “QVQLVESGGGLDQAGGSLRLSCAASGIIFVSNAMGWYRQAPGKERELVATITWTGGSTYYADSVKGRFTISRDNAKNTVYLQMNSLKPEDTAVYYCAADLSIRYDHEYGYWGQGTQVTVSS”, the “polyreactivity (PSR sort gate)” value is “low polyreactivity”. The same measure for “QVQLVESGGGLDQAGGSLRLSCAASGITFTRNAMGWYRQAPGKERELVAAITKSGGGTYYADSVKGRFTISRDNAKNTVYLQMNSLKPEDTAVYYCAAYTDKYGDYNYWGQGTLVTVSS”: “high polyreactivity”; for “QVQLVESGGGLDQAGGSLRLSCAASGITFVWNAMGWYRQAPGKERELVATISRGGVRTYYADSVKGRFTISRDNAKNTVYLQMNSLKPEDTAVYYCNKTTLLTVEYDYWGQGTQLTVSS”: “low polyreactivity”. Regarding “QVQLVESGGGLDQAGGSLRLSCAASGLIFGNYANRGYTQAPGKERELVAALSSGGSTHYADSVKGRFTISRDNAKNTVYLQMHSLNPEDTAVYYCAAGYRYAGNGQIANTGGYYWGQGTQVTVSW”, the “polyreactivity (PSR sort gate)” value was “low polyreactivity”. Next, “QVQLVESGGGLDQAGGSLRLSCAASGLIFLVNAMGWYRQPPWKERDLVAAIDLDGGITYADSVKGRFTISRDNAKNTVYLQMNSLKPEDTAVYYCAADPSSYGRFTYDYWGQGTQVTVSS”: “low polyreactivity”. The same measure for “QVQLVESGGGLDQAGGSLRLSCAASGLIFYAYTMGWYRQAPWKERELVAAINYSGGSTYYADSVKGRFTISRDNAKNTVYLQMNSLKPEDTAVYYCATRTGHWGQGTQVTVSS”: “low polyreactivity”; for “QVQLVESGGGLDQAGGSLRLSCAASGLIFYYYAMGWYRQAPGKERELVAAISSNGGSTYYADSVKGRFTISRDNAKNTVYLQMNSLKPEDTAGYYCAAVGRVDGYRYDYWGQGTQVTVSS”: “high polyreactivity”; for “QVQLVESGGGLDQAGGSLRLSCAASGLTFDANAMGWYRQAPGKERELVAAISSGGSTYADSVKGRFTISRDNAKNTVYLQMNSLKPEDTAVYYCNAVSIDVIQGDYNYWGQGTQVTVSS”: “low polyreactivity”.

For the origin of these results see the nanobody polyreactivity screen of Harvey et al. (2022).
